According to patent US20240376198A1 (INHIBRX, published 2024):
Substitutions are numbered along the chain they refer to. Like-named read-outs stand apart in the source and are kept apart here.

T1: mouse NKp46 (mouse, UniProt Q8C567 17-325)
T1 construct: whole, on cells
T1 sequence (looked up): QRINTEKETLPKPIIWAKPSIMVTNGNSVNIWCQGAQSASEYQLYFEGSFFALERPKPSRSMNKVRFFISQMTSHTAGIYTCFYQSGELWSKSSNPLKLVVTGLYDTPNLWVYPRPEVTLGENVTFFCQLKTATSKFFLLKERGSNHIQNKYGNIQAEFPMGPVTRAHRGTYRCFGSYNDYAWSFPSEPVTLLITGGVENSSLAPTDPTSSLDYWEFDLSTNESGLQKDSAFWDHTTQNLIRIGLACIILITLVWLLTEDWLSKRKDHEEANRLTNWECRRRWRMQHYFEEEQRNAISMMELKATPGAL

B1: NKp46-hz5D7v3-Fc* (Fc fusion)
chain: EVQLVESGGGEVQPGGSLRLSCAASGRTFASAAMGWFRQAPGKEREFVAAISRSDDTYYAESVKGRFTISRDNAKNTVYLQMSSLRAEDTAVYYCAAVVPTYGNNIYVHSAAYNYWGQGTLVTVKPGGGGPSVFLFPPKPKDTLMISRTPEVTCVVVDVSHEDPEVKFNWYVDGVEVHNAKTKPREEQYNSTYRVVSVLTVLHQDWLNGKEYKCKVSNKALPAPIEKTISKAKGQPREPQVYTLPPSRDELTKNQVSLTCLVKGFYPSDIAVEWESNGQPENNYKTTPPVLDSDGSFFLYSKLTVDKSRWQQGNVFSCSVMHEALHNHYTQKSLSLSPG
notes: VHH-Fc fusion with an IgG1 Fc lacking a hinge (Fc*); also called NKp46-bz5D7v3-Fc*
B2: NKp46-hz5D7v11-Fc* (Fc fusion)
chain: B1 chain with E61D, N104S, H109Y
notes: VHH-Fc fusion with an IgG1 Fc lacking a hinge (Fc*)
B3: NKp46-hz5D7v14-Fc* (Fc fusion)
chain: B1 chain with N104S, N105S
notes: as for B2
B4: NKp46-hz5D7v17-Fc (Fc fusion)
chain: EVQLVESGGGEVQPGGSLRLSCAASGRTFASAAMGWFRQAPGKEREFVAAISRSDDTYYAESVKGRFTISRDNAKNTVYLQMSSLRAEDTAVYYCAAVVPTYGSNIYVHSAAYNYWGQGTLVTVRPDKTHTCPPCPAPGGPSVFLFPPKPKDTLMISRTPEVTCVVVDVSHEDPEVKFNWYVDGVEVHNAKTKPREEQYNSTYRVVSVLTVLHQDWLNGKEYKCKVSNKALPAPIEKTISKAKGQPREPQVYTLPPSRDELTKNQVSLTCLVKGFYPSDIAVEWESNGQPENNYKTTPPVLDSDGSFFLYSKLTVDKSRWQQGNVFSCSVMHEALHNHYTQKSLSLSPG

Experiments:
cynomolgus NKp46 [1] = target: T2, cynomolgus NKp46 (cynomolgus monkey, UniProt Q95JB9 22-306); experiment: flow cytometry, HEK293F cells transfected with cyno NKp46
T2 construct: also called cyno NKp46; cynomolgus monkey NKp46
T2 sequence (Q95JB9 22-306 limits assumed): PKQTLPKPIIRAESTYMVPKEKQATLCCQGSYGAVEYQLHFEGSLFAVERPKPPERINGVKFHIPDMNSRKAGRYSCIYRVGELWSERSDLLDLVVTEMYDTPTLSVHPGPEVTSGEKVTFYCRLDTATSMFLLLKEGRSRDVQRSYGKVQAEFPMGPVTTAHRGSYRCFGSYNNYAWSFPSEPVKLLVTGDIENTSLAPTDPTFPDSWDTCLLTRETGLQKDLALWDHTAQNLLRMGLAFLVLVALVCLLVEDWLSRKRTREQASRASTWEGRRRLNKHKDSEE
Protocol: (§1) Binding of NKp46-binding polypeptides formatted as VHH-Fc fusion proteins was assessed by flow cytometry. An IgG1-Fc lacking a hinge, or a homodimeric Fc (FIG. 1I-1J) was used (the Fc lacking a hinge is annotated as Fc*). HEK293F cells were transiently transfected with a plasmid encoding full-length human NKp46, cynomolgus NKp46, or mouse NKp46, followed by an IRES and GFP. Transfected cells expressing NKp46 and GFP were used to measure binding of the polypeptides. The transfected cells were plated in a 96-well plate at 30,000 cells per well in FACS buffer (PBS, 1% BSA, 0.1% NaN₃, pH 7.4). Untransfected HEK293F cells were used as a NKp46-negative control and plated at 30,000 cells per well in a separate plate. Test polypeptides were then diluted to two times the final concentration of 1000 nM, and a 3-, 4-, or 5-fold, serial dilution was made. A final column was left with only FACS buffer as a secondary-only control. Test article dilutions were added to an equal volume of cells, and assay plates were incubated for 30 minutes at 4° C. After washing twice with 150 μL. of FACS buffer per well, the cells were resuspended in FACS buffer with α-hFc-647 secondary diluted 1:1000-2000. Assay plates were then left to incubate at 4° C. for 20-30 minutes. After one additional wash with 150 μL of FACS buffer, bound antibody was detected by flow cytometry. Flow cytometric detection was performed on an Intellicyt iQue Plus or Accuri iQue. NKp46 transfected cells were gated on as GFP positive, and polypeptide binding was measured as median fluorescence at 647 nm.

cynomolgus NKp46 [2] = target: T2, cynomolgus NKp46; experiment: as above; remark: listed apart in the source
Protocol: as §1

human NKp46 [3] = target: T3, human NKp46 (human, UniProt O76036 22-304); experiment: flow cytometry, HEK293F cells transfected with human NKp46
T3 construct: also called CD335; NCR1
T3 sequence (O76036 22-304 Q82K): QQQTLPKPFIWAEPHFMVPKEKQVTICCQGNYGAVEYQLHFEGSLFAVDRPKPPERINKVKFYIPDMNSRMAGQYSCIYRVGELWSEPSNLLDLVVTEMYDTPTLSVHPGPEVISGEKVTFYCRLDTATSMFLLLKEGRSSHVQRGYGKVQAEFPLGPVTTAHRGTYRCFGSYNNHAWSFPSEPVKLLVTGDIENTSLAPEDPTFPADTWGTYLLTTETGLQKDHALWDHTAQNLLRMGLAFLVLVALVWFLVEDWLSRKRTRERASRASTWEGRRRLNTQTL
Protocol: as §1

human NKp46 [4] = target: T3, human NKp46; experiment: as above; remark: listed apart in the source
Protocol: as §1

mouse NKp46 [5] = target: T1, mouse NKp46; experiment: flow cytometry, HEK293F cells transfected with mouse NKp46
Protocol: as §1

mouse NKp46 [6] = target: T1, mouse NKp46; experiment: as above; remark: listed apart in the source
Protocol: as §1

human NKp46 [7] = target: T3, human NKp46; experiment: flow cytometry, HEK293F cells transfected with human NKp46; Table 3 experiment; HEK-293 transfected with human NKp46
Protocol: as §1, with “After washing twice with 150 μL. of FACS buffer per well, the cells were resuspended in FACS buffer with α-hFc-647 secondary diluted 1:1000-2000. Assay plates were then left to incubate at 4° C. for 20-30 minutes.” left out, “Flow cytometric detection was performed on an Intellicyt iQue Plus or Accuri iQue.” left out

mouse NKp46 [8] = target: T1, mouse NKp46; experiment: flow cytometry on HEK-293F cells transfected with full-length mouse NKp46, anti-hFc-647 secondary
Protocol: as §1, with “After washing twice with 150 μL. of FACS buffer per well, the cells were resuspended in FACS buffer with α-hFc-647 secondary diluted 1:1000-2000. Assay plates were then left to incubate at 4° C. for 20-30 minutes.” left out, “Flow cytometric detection was performed on an Intellicyt iQue Plus or Accuri iQue.” left out

human NKp46 [9] = target: T3, human NKp46; experiment: flow cytometry on HEK-293F cells transfected with full-length human NKp46, bivalent VHH with homodimeric Fc, anti-hFc-647 secondary
Protocol: as §1, with “After washing twice with 150 μL. of FACS buffer per well, the cells were resuspended in FACS buffer with α-hFc-647 secondary diluted 1:1000-2000. Assay plates were then left to incubate at 4° C. for 20-30 minutes.” left out, “Flow cytometric detection was performed on an Intellicyt iQue Plus or Accuri iQue.” left out

Binder | Bmax (MFI) (cynomolgus NKp46 [1]) | Kd (cynomolgus NKp46 [1]) [nM] | Bmax (MFI) (cynomolgus NKp46 [2]) | Kd (cynomolgus NKp46 [2]) [nM] | Bmax (MFI) (human NKp46 [3]) | Bmax (MFI) (human NKp46 [4]) | Kd (human NKp46 [4]) [nM] | Bmax (MFI) (mouse NKp46 [5]) | Kd (mouse NKp46 [5]) [nM] | Bmax (MFI) (mouse NKp46 [6]) | Kd (mouse NKp46 [6]) [nM] | Kd (human NKp46 [7]) [nM] | Kd (human NKp46 [3]) [nM] | EC50 (read off the curve) (mouse NKp46 [8]) [nM] | EC50 (read off the curve) (human NKp46 [9]) [nM]
B1 | 51800 | 0.726 | 19800 | 0.773 | 1.27e+06 | 149000 | 0.177 | 1.17e+06 | 0.685 | 56500 | 0.313 | 0.511 | – | – | –
B2 | 52300 | 1.84 | – | – | 1.05e+06 | – | – | 723000 | 1.7 | – | – | – | 0.189 | ~2 | –
B3 | – | – | 14300 | 0.252 | – | 138000 | 0.158 | – | – | 11300 | 6.51 | – | – | ~8 | –
B4 | – | – | – | – | – | – | – | – | – | – | – | – | 0.295 | – | ~0.3
